This is an account of results in article PMC4351142 (Structure (London, England : 1993), 2015).

Where only a bound is given, the exact number is not on record here.

Assay [1] addresses CHIP-TPR domain (HsCHIP 21-154) (human) (UniProt Q9UNE7). Kind of assay: NMR titration.
Assay [2] addresses T1, CHIP-TPR domain (HsCHIP 21-154) (human, UniProt Q9UNE7 21-154).
T1 sequence (looked up): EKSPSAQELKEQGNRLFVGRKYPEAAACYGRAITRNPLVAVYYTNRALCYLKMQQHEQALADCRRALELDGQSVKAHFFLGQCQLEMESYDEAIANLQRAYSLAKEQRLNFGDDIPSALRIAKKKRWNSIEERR
As to the kind of experiment: crystal structure.

Turning to “Hsc70-lid-tail-ΔGPTIEEVD (domain or fragment)”, the Kd in assay [1] is over 100 µM.

B1: HsHsc70_(541-646)Δ_(626-638) (domain or fragment, human, UniProt P11142 541-646, looked up)
chain: SLESYAFNMKATVEDEKLQGKINDEDKQKILDKCNEIINWLDKNQTAEKEEFEHQQKELEKVCNPIITKLYQSAGGMPGGMPGGFGPTIEEVD
Turning to B1, the binding result in assay [2] was “binds”.

As usually defined, the Kd is the constant that tells how readily two partners part at equilibrium. A higher Kd goes with lower affinity.
